Several values for one entry are separate records, joined by “and”; a condition that tells them apart may be missing. Equal entries are not always repeated. Where two headings read alike, the source gives them in different places.
What was measured:
[1] = target: CR8071 lambda light chain (L1) with V133G_S176R, design 2188, System C; assay: SMCA, LC-MS
[2] = target: CR8071 lambda light chain (L1) with V133G_S176R, design 2188, System C
[3] = target: CR8071 lambda light chain (L1) with E124K_Y178R, design 2830, System C; assay: SMCA, LC-MS
[4] = target: CR8071 lambda light chain (L1) with E124K_Y178R, design 2830, System C
[5] = target: CR8071 lambda light chain (L1) with E124R, design 2826; assay: SMCA LC-MS, System C
[6] = target: CR8071 lambda light chain (L1) with E124R, design 2826; assay: SMCA: co-expression
[7] = target: CR8071 lambda light chain (L1) with S180E, designs 2816 and 2827; assay: SMCA LC-MS, System C
[8] = target: CR8071 lambda light chain (L1) with S180E, designs 2816 and 2827; assay: SMCA: H1, L1, H2, L2 co-expressed in CHO-3E7
[9] = target: CR8071 lambda light chain (L1) with S180E, designs 2816 and 2827; assay: SMCA: co-expression
[10] = target: CR8071 lambda light chain L1, design 2188 (V133G_S176R); assay: SMCA, System C, LC-MS
[11] = target: CR8071 lambda light chain L1, design 2188 (V133G_S176R); assay: SMCA, System C
[12] = target: Pertuzumab light chain (kappa) V133G_S176D, HA-tagged; assay: LCCA
[13] = target: Pertuzumab light chain (kappa) V133G_S176D, HA-tagged; assay: LCCA; remark: listed apart in the source
[14] = target: CAT-2200 light chain (lambda) V133I_L135K, FLAG-tagged; assay: LCCA
[15] = target: CAT-2200 light chain (lambda) V133I_L135R_Y178F, FLAG-tagged; assay: LCCA
[16] = target: CAT-2200 light chain (lambda) Y178K, FLAG-tagged; assay: LCCA
[17] = target: Pertuzumab light chain (kappa) V133G_S176D, HA-tagged; assay: LCCA; remark: listed apart in the source
[18] = target: SGN-CD19a kappa light chain (L2) with V133G_S176D, design 2188, Systems B and C; assay: SMCA, LC-MS
[19] = target: SGN-CD19a kappa light chain (L2) with V133G_S176D, design 2188, Systems B and C
[20] = target: SGN-CD19a kappa light chain (L2) with T178E_T180E, design 2830, System C; assay: SMCA, LC-MS
[21] = target: SGN-CD19a kappa light chain (L2) with T178E_T180E, design 2830, System C
[22] = target: SGN-CD19a kappa light chain (L2) with Q124R_Q160K_T178R, design 2816; assay: SMCA LC-MS, System C
[23] = target: SGN-CD19a kappa light chain (L2) with Q124R_Q160K_T178R, design 2816; assay: SMCA: co-expression
[24] = target: SGN-CD19a kappa light chain (L2) with Q124K_T178R, design 2827; assay: SMCA LC-MS, System B
[25] = target: SGN-CD19a kappa light chain (L2) with Q124K_T178R, design 2827; assay: SMCA LC-MS, System C
[26] = target: SGN-CD19a kappa light chain (L2) with Q124E_Q160E_T180E, design 2826; assay: SMCA LC-MS, System B
[27] = target: SGN-CD19a kappa light chain (L2) with Q124E_Q160E_T180E, design 2826; assay: SMCA LC-MS, System C
[28] = target: SGN-CD19a kappa light chain (L2) with Q124E_Q160E_T180E, design 2826; assay: SMCA: co-expression
[29] = target: SGN-CD19a kappa light chain (L2) with T178E_T180E, design 2830; assay: SMCA LC-MS, System B
[30] = target: SGN-CD19a kappa light chain (L2) with T178E_T180E, design 2830; assay: SMCA: co-expression
[31] = target: SGN-CD19a kappa light chain L2, design 2188 (V133G_S176D); assay: SMCA, System C, LC-MS
[32] = target: SGN-CD19a kappa light chain L2, design 2188 (V133G_S176D); assay: SMCA, System C
[33] = target: SGN-CD19a kappa light chain L2, design 2816 (Q124R_Q160K_T178R); assay: SMCA, System B, LC-MS
[34] = target: SGN-CD19a kappa light chain L2, design 2816 (Q124R_Q160K_T178R); assay: SMCA, System C, LC-MS
[35] = target: SGN-CD19a kappa light chain L2, design 2816 (Q124R_Q160K_T178R); assay: SMCA, System B
[36] = target: SGN-CD19a kappa light chain L2, design 2816 (Q124R_Q160K_T178R); assay: SMCA, System C
[37] = target: SGN-CD19a kappa light chain L2, design 2827 (Q124K_T178R); assay: SMCA, System B, LC-MS
[38] = target: SGN-CD19a kappa light chain L2, design 2827 (Q124K_T178R); assay: SMCA, System C, LC-MS
[39] = target: SGN-CD19a kappa light chain L2, design 2827 (Q124K_T178R); assay: SMCA, System B
[40] = target: SGN-CD19a kappa light chain L2, design 2827 (Q124K_T178R); assay: SMCA, System C
[41] = target: SGN-CD19a kappa light chain L2, design 2830 (T178E_T180E); assay: SMCA, System B, LC-MS
[42] = target: SGN-CD19a kappa light chain L2, design 2830 (T178E_T180E); assay: SMCA, System B

Substance: CR8071 full-length IgG1 heavy chain (H1) with L124E, design 2188, System C
- Change in % H1L1 Pairing with respect to wild type [1]: -23.5%
- % H1L1 Pairing [2]: 24.9%

Substance: CR8071 full-length IgG1 heavy chain (H1) with L143E_K145T_Q179E, design 2830, System C
- Change in % H1L1 Pairing with respect to wild type [3]: -20.4%
- % H1L1 Pairing [4]: 28%

Substance: CR8071 heavy chain (H1, lambda arm) with L143E_K145T, design 2826, full-length IgG1 with heterodimeric Fc
- Change in % H1L1 Pairing with respect to wild type [5]: -40.3%
- % H1L1 Pairing [6]: 27.8%

Substance: CR8071 heavy chain (H1, lambda arm) with Q179K, design 2816, full-length IgG1 with heterodimeric Fc
- Change in % H1L1 Pairing with respect to wild type [7]: 17%
- % H1L1 Pairing [8]: 99.3%

Substance: CR8071 heavy chain (H1, lambda arm) with S186R, design 2827, full-length IgG1 with heterodimeric Fc
- Change in % H1L1 Pairing with respect to wild type [7]: 15.9%
- % H1L1 Pairing [9]: 98.2%

Substance: CR8071 heavy chain H1, design 2188 (L124E)
- Change in % H1L1 Pairing with respect to wild type [10]: -23.5%
- % H1L1 Pairing [11]: 24.9%

Substance: Pertuzumab heavy chain Fab construct L124R
- H2L2:H2L1 normalized median ratio, H2L2 share [12]: 84%
- H2L2:H2L1 normalized median scalar value ln(r1/f1) [12]: 1.68
- H2L2:H2L1 normalized median ratio, H2L2 share [13]: 83%
- H2L2:H2L1 normalized median scalar value ln(r1/f1) [13]: 1.56
- H2L2:H2L1 normalized median ratio (H2L1 share) [14]: 14%
- H2L2:H2L1 normalized median ratio (H2L1 share) [15]: 17%
- H2L2:H2L1 normalized median ratio (H2L1 share) [16]: 16%
- H2L2:H2L1 normalized median ratio, H2L2 share [17]: 86%
- H2L2:H2L1 normalized median scalar value ln(r1/f1) [17]: 1.8

Substance: SGN-CD19a full-length IgG1 heavy chain (H2) with L124R, design 2188, Systems B and C
- Change in % H2L2 Pairing with respect to wild type [18]: 38.7% and 19.9%
- % H2L2 Pairing [19]: 92.9% and 99.5%

Substance: SGN-CD19a full-length IgG1 heavy chain (H2) with S186R, design 2830, System C
- Change in % H2L2 Pairing with respect to wild type [20]: 20%
- % H2L2 Pairing [21]: 99.6%

Substance: SGN-CD19a heavy chain (H2, kappa arm) with L143E_K145T, design 2816, full-length IgG1 with heterodimeric Fc
- Change in % H2L2 Pairing with respect to wild type [22]: 19.8%
- % H2L2 Pairing [23]: 79.7%

Substance: SGN-CD19a heavy chain (H2, kappa arm) with L143E_K145T_Q179E, design 2827, full-length IgG1 with heterodimeric Fc
- Change in % H2L2 Pairing with respect to wild type [24]: -15.3%
- Change in % H2L2 Pairing with respect to wild type [25]: 25.1%

Substance: SGN-CD19a heavy chain (H2, kappa arm) with Q179K, design 2826, full-length IgG1 with heterodimeric Fc
- Change in % H2L2 Pairing with respect to wild type [26]: 35.5%
- Change in % H2L2 Pairing with respect to wild type [27]: 26.7%
- % H2L2 Pairing [28]: 89.7% and 98%

Substance: SGN-CD19a heavy chain (H2, kappa arm) with S186R, design 2830, full-length IgG1 with heterodimeric Fc
- Change in % H2L2 Pairing with respect to wild type [29]: 44.3%
- % H2L2 Pairing [30]: 98.5%

Substance: SGN-CD19a heavy chain H2, design 2188 (L124R)
- Change in % H2L2 Pairing with respect to wild type [31]: 19.9%
- % H2L2 Pairing [32]: 99.5%

Substance: SGN-CD19a heavy chain H2, design 2816 (L143E_K145T)
- Change in % H2L2 Pairing with respect to wild type [33]: -12.5%
- Change in % H2L2 Pairing with respect to wild type [34]: 19.8%
- % H2L2 Pairing [35]: 25.1%
- % H2L2 Pairing [36]: 79.7%

Substance: SGN-CD19a heavy chain H2, design 2827 (L143E_K145T_Q179E)
- Change in % H2L2 Pairing with respect to wild type [37]: -15.3%
- Change in % H2L2 Pairing with respect to wild type [38]: 25.1%
- % H2L2 Pairing [39]: 22.3%
- % H2L2 Pairing [40]: 85%

Substance: SGN-CD19a heavy chain H2, design 2830 (S186R)
- Change in % H2L2 Pairing with respect to wild type [41]: 44.3%
- % H2L2 Pairing [42]: 98.5%

Reference: US20190338048A1
